T1: Glucocorticoid receptor (NR3C1) with the LLID motif mutated to AAAA by site-directed mutagenesis of Myc-DDK tagged NR3C1
T1 chain: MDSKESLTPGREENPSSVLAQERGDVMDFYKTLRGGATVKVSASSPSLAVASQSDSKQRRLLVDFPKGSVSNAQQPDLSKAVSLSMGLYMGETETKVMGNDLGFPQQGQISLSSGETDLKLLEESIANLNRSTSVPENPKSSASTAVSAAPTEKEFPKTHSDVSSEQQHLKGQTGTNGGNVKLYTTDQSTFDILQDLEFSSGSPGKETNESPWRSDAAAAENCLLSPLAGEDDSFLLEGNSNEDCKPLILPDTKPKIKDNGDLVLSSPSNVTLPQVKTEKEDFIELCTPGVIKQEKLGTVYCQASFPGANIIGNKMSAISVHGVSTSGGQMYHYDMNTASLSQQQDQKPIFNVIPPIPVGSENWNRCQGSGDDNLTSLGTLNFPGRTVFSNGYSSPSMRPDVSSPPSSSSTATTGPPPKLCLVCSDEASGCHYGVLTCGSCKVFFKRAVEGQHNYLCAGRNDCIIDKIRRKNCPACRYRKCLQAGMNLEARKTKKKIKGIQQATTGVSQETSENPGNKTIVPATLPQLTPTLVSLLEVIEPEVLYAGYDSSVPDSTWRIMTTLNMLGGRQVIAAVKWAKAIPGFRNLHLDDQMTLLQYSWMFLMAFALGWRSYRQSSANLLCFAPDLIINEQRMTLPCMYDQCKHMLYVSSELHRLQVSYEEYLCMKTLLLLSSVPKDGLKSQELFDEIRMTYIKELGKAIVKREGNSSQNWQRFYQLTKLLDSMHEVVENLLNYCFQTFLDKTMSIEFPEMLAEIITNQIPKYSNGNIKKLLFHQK

B1: Recombinant human CASP1 (Enzo Life Sciences CASP1 assay kit for drug discovery, catalog number BML-AK701-0001) (protein)
chain: NPAMPTSSGSEGNVKLCSLEEAQRIWKQKSAEIYPIMDKSSRTRLALIICNEEFDSIPRRTGAEVDITGMTMLLQNLGYSVDVKKNLTASDMTTELEAFAHRPEHKTSDSTFLVFMSHGIREGICGKKHSEQVPDILQLNAIFNMLNTKNCPSLKDKPKVIIIQACRGDSPGVVWFKDSVGVSGNLSLPTTEEFEDDAIKKAHIEKDFIAFCSSTPDNVSWRHPTMGSVFIGRLIEHMQEYACSCDVEEIFRKVRFSFEQPDGRAQMPTTERVTLTRCFYLFPGH

How the values were obtained:
[1] = biological target: Doubly mutated GR (double mutagenized GR, both CASP1 cleavage sites LLID and IKQE replaced by alanines), expressed from pLX304 lentivirus (human) (UniProt P04150); assay: cell-based or functional assay
[2] = biological target: Endogenous glucocorticoid receptor (90-kDa GR) of NALM-6 human leukemia cells (human) (UniProt P04150); assay: cell-based or functional assay
[3] = biological target: T1, Glucocorticoid receptor (NR3C1) with …

| Molecule | fold decrease in prednisolone LC50 (MTT assay) in CASP1-overexpressing NALM-6 cells expressing GR without CASP1 cleavage sites [1] [fold] | GR protein level in CASP1-overexpressing Nalm6 cells 24 hours after activation of CASP1 (western blot) [2] [% reduction] | level of 90-kDa GR after activation of CASP1 (LPS/ATP) in shNT CASP1-overexpressing NALM-6 cells (western blot, normalized for HSP90) [2] [fold lower] | cleavage of mutated GR in CASP1 enzymatic assay (western blot) [3] |
| --- | --- | --- | --- | --- |
| Full-length CASP1 (Origene catalog # RC218364; GenBank Accession No. NM_033292) overexpressed in Nalm6 leukemia cells by lentivirus (from UniProt P29466 1-404) (enzyme) | 9.4 | 35 | 2 |  |
| B1 |  |  |  | Site-directed mutagenesis of the LLID motif (SEQ ID NO: 20) ablated cleavage of the glucocorticoid receptor at this location (FIG. 3B) and revealed a secondary CASP1 cleavage site in the GR |

From US20160230173A1
